From patent publication JP2007300927A (dated 2007)

How the values were obtained:
[1] = biological target: T1, 可溶型GPC3コアタンパク質 (human, UniProt P51654 25-563); assay: ELISA on GPC3 (Fig. 15)
T1 construct: also called 可溶型GPC3コア蛋白質; soluble GPC3 core protein; not shown: C-terminal His tag

[2] = biological target: T1, 可溶型GPC3コアタンパク質; assay: ELISA on immobilised soluble GPC3 core protein, COS7 supernatant

T1 sequence (P51654 25-563 S495A/S509A): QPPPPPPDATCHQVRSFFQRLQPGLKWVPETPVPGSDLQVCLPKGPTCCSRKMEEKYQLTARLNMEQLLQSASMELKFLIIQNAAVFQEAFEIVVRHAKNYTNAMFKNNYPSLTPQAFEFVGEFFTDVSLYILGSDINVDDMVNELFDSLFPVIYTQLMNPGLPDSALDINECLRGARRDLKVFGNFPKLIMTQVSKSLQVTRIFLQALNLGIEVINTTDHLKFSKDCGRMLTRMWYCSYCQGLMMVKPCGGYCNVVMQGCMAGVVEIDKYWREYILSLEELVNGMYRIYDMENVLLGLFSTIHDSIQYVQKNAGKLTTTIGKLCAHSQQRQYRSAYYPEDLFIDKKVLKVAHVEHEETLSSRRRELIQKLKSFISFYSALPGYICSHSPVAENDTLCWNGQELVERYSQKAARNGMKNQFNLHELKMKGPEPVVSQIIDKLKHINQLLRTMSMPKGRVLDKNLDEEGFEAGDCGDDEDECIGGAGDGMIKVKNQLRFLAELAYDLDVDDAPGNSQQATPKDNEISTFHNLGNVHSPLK

Row | binding result [1] | binding result [2] | Binder
1 | binds |  | ヒト化GC33 H鎖ver.k / L鎖ver.a (antibody, human IgG1, V domains shown, Human IgG1 / κ constant regions; also called GC33 VH ver.k) VH: QVQLVQSGAEVKKPGASVKVSCKASGYTFTDYEMHWVRQAPGQGLEWMGALDPKTGDTAYSQKFKGRVTLTADKSTSTAYMELSSLTSEDTAVYYCTRFYSYTYWGQGTLVTVSS VL: DVVMTQSPLSLPVTPGEPASISCRSSQSLVHSNGNTYLHWYLQKPGQSPQLLIYKVSNRFSGVPDRFSGSGSGTDFTLKISRVEAEDVGVYYCSQNTHVPPTFGQGTKLEIK
2 |  | no binding | Asn33をAspに置換した改変抗体(N33D) (antibody, human IgG1, V domains shown, Humanised GC33 H chain ver.k (HEFgγ1, human IgG1) with L chain ver.a N33D (HEFgκ, human κ), expressed transiently in COS7; culture supernatant used) VH: QVQLVQSGAEVKKPGASVKVSCKASGYTFTDYEMHWVRQAPGQGLEWMGALDPKTGDTAYSQKFKGRVTLTADKSTSTAYMELSSLTSEDTAVYYCTRFYSYTYWGQGTLVTVSS VL: DVVMTQSPLSLPVTPGEPASISCRSSQSLVHSDGNTYLHWYLQKPGQSPQLLIYKVSNRFSGVPDRFSGSGSGTDFTLKISRVEAEDVGVYYCSQNTHVPPTFGQGTKLEIK
3 |  | binds | 改変抗体G34H (antibody, human IgG1, V domains shown, As G34A: H chain ver.k by 'the method above'; human IgG1/κ; COS7 supernatant) VH: QVQLVQSGAEVKKPGASVKVSCKASGYTFTDYEMHWVRQAPGQGLEWMGALDPKTGDTAYSQKFKGRVTLTADKSTSTAYMELSSLTSEDTAVYYCTRFYSYTYWGQGTLVTVSS VL: DVVMTQSPLSLPVTPGEPASISCRSSQSLVHSNHNTYLHWYLQKPGQSPQLLIYKVSNRFSGVPDRFSGSGSGTDFTLKISRVEAEDVGVYYCSQNTHVPPTFGQGTKLEIK
4 |  | binds | 改変抗体G34S (antibody, human IgG1, V domains shown, As G34A: H chain ver.k by 'the method above'; human IgG1/κ; COS7 supernatant) VH: QVQLVQSGAEVKKPGASVKVSCKASGYTFTDYEMHWVRQAPGQGLEWMGALDPKTGDTAYSQKFKGRVTLTADKSTSTAYMELSSLTSEDTAVYYCTRFYSYTYWGQGTLVTVSS VL: DVVMTQSPLSLPVTPGEPASISCRSSQSLVHSNSNTYLHWYLQKPGQSPQLLIYKVSNRFSGVPDRFSGSGSGTDFTLKISRVEAEDVGVYYCSQNTHVPPTFGQGTKLEIK
5 |  | binds | 改変抗体G34L (antibody, human IgG1, V domains shown, As G34A: H chain ver.k by 'the method above'; human IgG1/κ; COS7 supernatant) VH: QVQLVQSGAEVKKPGASVKVSCKASGYTFTDYEMHWVRQAPGQGLEWMGALDPKTGDTAYSQKFKGRVTLTADKSTSTAYMELSSLTSEDTAVYYCTRFYSYTYWGQGTLVTVSS VL: DVVMTQSPLSLPVTPGEPASISCRSSQSLVHSNLNTYLHWYLQKPGQSPQLLIYKVSNRFSGVPDRFSGSGSGTDFTLKISRVEAEDVGVYYCSQNTHVPPTFGQGTKLEIK
6 |  | binds | 改変抗体G34R (antibody, human IgG1, V domains shown, As G34A: H chain ver.k by 'the method above'; human IgG1/κ; COS7 supernatant) VH: QVQLVQSGAEVKKPGASVKVSCKASGYTFTDYEMHWVRQAPGQGLEWMGALDPKTGDTAYSQKFKGRVTLTADKSTSTAYMELSSLTSEDTAVYYCTRFYSYTYWGQGTLVTVSS VL: DVVMTQSPLSLPVTPGEPASISCRSSQSLVHSNRNTYLHWYLQKPGQSPQLLIYKVSNRFSGVPDRFSGSGSGTDFTLKISRVEAEDVGVYYCSQNTHVPPTFGQGTKLEIK
7 |  | binds | 改変抗体G34I (antibody, human IgG1, V domains shown, As G34A: H chain ver.k by 'the method above'; human IgG1/κ; COS7 supernatant) VH: QVQLVQSGAEVKKPGASVKVSCKASGYTFTDYEMHWVRQAPGQGLEWMGALDPKTGDTAYSQKFKGRVTLTADKSTSTAYMELSSLTSEDTAVYYCTRFYSYTYWGQGTLVTVSS VL: DVVMTQSPLSLPVTPGEPASISCRSSQSLVHSNINTYLHWYLQKPGQSPQLLIYKVSNRFSGVPDRFSGSGSGTDFTLKISRVEAEDVGVYYCSQNTHVPPTFGQGTKLEIK
8 | binds |  | ヒト化GC33 H鎖ver.h / L鎖ver.a (antibody, human IgG1, V domains shown, Human IgG1 / κ constant regions; also called GC33 VH ver.h) VH: QVQLVESGAEVKKPGASVKVSCKASGYTFTDYEMHWVRQAPGQGLEWMGALDPKTGDTAYSQKFKGRVTLTADKSTSTAYMELSSLTSEDTAVYYCTRFYSYTYWGQGTLVTVSS VL: DVVMTQSPLSLPVTPGEPASISCRSSQSLVHSNGNTYLHWYLQKPGQSPQLLIYKVSNRFSGVPDRFSGSGSGTDFTLKISRVEAEDVGVYYCSQNTHVPPTFGQGTKLEIK
9 |  | binds | 改変抗体G34E (antibody, human IgG1, V domains shown, As G34A: H chain ver.k by 'the method above'; human IgG1/κ; COS7 supernatant) VH: QVQLVQSGAEVKKPGASVKVSCKASGYTFTDYEMHWVRQAPGQGLEWMGALDPKTGDTAYSQKFKGRVTLTADKSTSTAYMELSSLTSEDTAVYYCTRFYSYTYWGQGTLVTVSS VL: DVVMTQSPLSLPVTPGEPASISCRSSQSLVHSNENTYLHWYLQKPGQSPQLLIYKVSNRFSGVPDRFSGSGSGTDFTLKISRVEAEDVGVYYCSQNTHVPPTFGQGTKLEIK
10 |  | binds | 改変抗体G34T (antibody, human IgG1, V domains shown, As G34A: H chain ver.k by 'the method above'; human IgG1/κ; COS7 supernatant) VH: QVQLVQSGAEVKKPGASVKVSCKASGYTFTDYEMHWVRQAPGQGLEWMGALDPKTGDTAYSQKFKGRVTLTADKSTSTAYMELSSLTSEDTAVYYCTRFYSYTYWGQGTLVTVSS VL: DVVMTQSPLSLPVTPGEPASISCRSSQSLVHSNTNTYLHWYLQKPGQSPQLLIYKVSNRFSGVPDRFSGSGSGTDFTLKISRVEAEDVGVYYCSQNTHVPPTFGQGTKLEIK
11 |  | binds | 改変抗体G34Q (antibody, human IgG1, V domains shown, As G34A: H chain ver.k by 'the method above'; human IgG1/κ; COS7 supernatant) VH: QVQLVQSGAEVKKPGASVKVSCKASGYTFTDYEMHWVRQAPGQGLEWMGALDPKTGDTAYSQKFKGRVTLTADKSTSTAYMELSSLTSEDTAVYYCTRFYSYTYWGQGTLVTVSS VL: DVVMTQSPLSLPVTPGEPASISCRSSQSLVHSNQNTYLHWYLQKPGQSPQLLIYKVSNRFSGVPDRFSGSGSGTDFTLKISRVEAEDVGVYYCSQNTHVPPTFGQGTKLEIK
12 | binds |  | ヒト化GC33 H鎖ver.c / L鎖ver.a (antibody, human IgG1, V domains shown, Human IgG1 / κ constant regions; also called GC33 VH ver.c) VH: QVQLVESGAEVKKPGASVKVSCKASGYTFTDYEMHWVRQAPGQGLEWMGALDPKTGDTAYSQKFKGRVTLTADESTSTAYMELSSLRSEDTAVYYCTRFYSYTYWGQGTLVTVSS VL: DVVMTQSPLSLPVTPGEPASISCRSSQSLVHSNGNTYLHWYLQKPGQSPQLLIYKVSNRFSGVPDRFSGSGSGTDFTLKISRVEAEDVGVYYCSQNTHVPPTFGQGTKLEIK
13 |  | binds | 改変抗体G34A (antibody, human IgG1, V domains shown, Humanised GC33 L chain ver.a variant; human IgG1/κ; COS7 culture supernatant) VH: QVQLVQSGAEVKKPGASVKVSCKASGYTFTDYEMHWVRQAPGQGLEWMGALDPKTGDTAYSQKFKGRVTLTADKSTSTAYMELSSLTSEDTAVYYCTRFYSYTYWGQGTLVTVSS VL: DVVMTQSPLSLPVTPGEPASISCRSSQSLVHSNANTYLHWYLQKPGQSPQLLIYKVSNRFSGVPDRFSGSGSGTDFTLKISRVEAEDVGVYYCSQNTHVPPTFGQGTKLEIK
14 |  | binds | 改変抗体G34W (antibody, human IgG1, V domains shown, As G34A: H chain ver.k by 'the method above'; human IgG1/κ; COS7 supernatant) VH: QVQLVQSGAEVKKPGASVKVSCKASGYTFTDYEMHWVRQAPGQGLEWMGALDPKTGDTAYSQKFKGRVTLTADKSTSTAYMELSSLTSEDTAVYYCTRFYSYTYWGQGTLVTVSS VL: DVVMTQSPLSLPVTPGEPASISCRSSQSLVHSNWNTYLHWYLQKPGQSPQLLIYKVSNRFSGVPDRFSGSGSGTDFTLKISRVEAEDVGVYYCSQNTHVPPTFGQGTKLEIK
15 |  | binds | 改変抗体G34F (antibody, human IgG1, V domains shown, As G34A: H chain ver.k by 'the method above'; human IgG1/κ; COS7 supernatant) VH: QVQLVQSGAEVKKPGASVKVSCKASGYTFTDYEMHWVRQAPGQGLEWMGALDPKTGDTAYSQKFKGRVTLTADKSTSTAYMELSSLTSEDTAVYYCTRFYSYTYWGQGTLVTVSS VL: DVVMTQSPLSLPVTPGEPASISCRSSQSLVHSNFNTYLHWYLQKPGQSPQLLIYKVSNRFSGVPDRFSGSGSGTDFTLKISRVEAEDVGVYYCSQNTHVPPTFGQGTKLEIK
16 |  | binds | 改変抗体G34N (antibody, human IgG1, V domains shown, As G34A: H chain ver.k by 'the method above'; human IgG1/κ; COS7 supernatant) VH: QVQLVQSGAEVKKPGASVKVSCKASGYTFTDYEMHWVRQAPGQGLEWMGALDPKTGDTAYSQKFKGRVTLTADKSTSTAYMELSSLTSEDTAVYYCTRFYSYTYWGQGTLVTVSS VL: DVVMTQSPLSLPVTPGEPASISCRSSQSLVHSNNNTYLHWYLQKPGQSPQLLIYKVSNRFSGVPDRFSGSGSGTDFTLKISRVEAEDVGVYYCSQNTHVPPTFGQGTKLEIK
17 | binds |  | ヒト化GC33 H鎖ver.f / L鎖ver.a (antibody, human IgG1, V domains shown, Human IgG1 / κ constant regions; also called GC33 VH ver.f) VH: QVQLVESGAEVKKPGASVKVSCKASGYTFTDYEMHWVRQAPGQGLEWMGALDPKTGDTAYSQKFKGRVTLTADKSTSTAYMELSSLRSEDTAVYYCTRFYSYTYWGQGTLVTVSS VL: DVVMTQSPLSLPVTPGEPASISCRSSQSLVHSNGNTYLHWYLQKPGQSPQLLIYKVSNRFSGVPDRFSGSGSGTDFTLKISRVEAEDVGVYYCSQNTHVPPTFGQGTKLEIK
18 |  | binds | 改変抗体G34K (antibody, human IgG1, V domains shown, As G34A: H chain ver.k by 'the method above'; human IgG1/κ; COS7 supernatant) VH: QVQLVQSGAEVKKPGASVKVSCKASGYTFTDYEMHWVRQAPGQGLEWMGALDPKTGDTAYSQKFKGRVTLTADKSTSTAYMELSSLTSEDTAVYYCTRFYSYTYWGQGTLVTVSS VL: DVVMTQSPLSLPVTPGEPASISCRSSQSLVHSNKNTYLHWYLQKPGQSPQLLIYKVSNRFSGVPDRFSGSGSGTDFTLKISRVEAEDVGVYYCSQNTHVPPTFGQGTKLEIK
19 |  | binds | 改変抗体G34Y (antibody, human IgG1, V domains shown, As G34A: H chain ver.k by 'the method above'; human IgG1/κ; COS7 supernatant) VH: QVQLVQSGAEVKKPGASVKVSCKASGYTFTDYEMHWVRQAPGQGLEWMGALDPKTGDTAYSQKFKGRVTLTADKSTSTAYMELSSLTSEDTAVYYCTRFYSYTYWGQGTLVTVSS VL: DVVMTQSPLSLPVTPGEPASISCRSSQSLVHSNYNTYLHWYLQKPGQSPQLLIYKVSNRFSGVPDRFSGSGSGTDFTLKISRVEAEDVGVYYCSQNTHVPPTFGQGTKLEIK
20 | binds |  | ヒト化GC33 H鎖ver.i / L鎖ver.a (antibody, human IgG1, V domains shown, Human IgG1 / κ constant regions; also called GC33 VH ver.i) VH: QVQLVQSGAEVKKPGASVKVSCKASGYTFTDYEMHWVRQAPGQGLEWMGALDPKTGDTAYSQKFKGRVTLTADESTSTAYMELSSLRSEDTAVYYCTRFYSYTYWGQGTLVTVSS VL: DVVMTQSPLSLPVTPGEPASISCRSSQSLVHSNGNTYLHWYLQKPGQSPQLLIYKVSNRFSGVPDRFSGSGSGTDFTLKISRVEAEDVGVYYCSQNTHVPPTFGQGTKLEIK
21 |  | binds | 改変抗体G34D (antibody, human IgG1, V domains shown, As G34A: H chain ver.k by 'the method above'; human IgG1/κ; COS7 supernatant) VH: QVQLVQSGAEVKKPGASVKVSCKASGYTFTDYEMHWVRQAPGQGLEWMGALDPKTGDTAYSQKFKGRVTLTADKSTSTAYMELSSLTSEDTAVYYCTRFYSYTYWGQGTLVTVSS VL: DVVMTQSPLSLPVTPGEPASISCRSSQSLVHSNDNTYLHWYLQKPGQSPQLLIYKVSNRFSGVPDRFSGSGSGTDFTLKISRVEAEDVGVYYCSQNTHVPPTFGQGTKLEIK
